Laboratory results taken from paper PMC5837041 (Molecular cell, 2017).

Key:
Vms1 (Vms1^1-417) = target: T1, Vms1 (Vms1^1-417) (Saccharomyces cerevisiae, UniProt Q04311); assay: lipid blot on nitrocellulose; format: binding; settings: TBS pH 7.5, 4 °C, 3% BSA (blot); competitive with LRS for the MTD
T1 sequence (Q04311 1-417): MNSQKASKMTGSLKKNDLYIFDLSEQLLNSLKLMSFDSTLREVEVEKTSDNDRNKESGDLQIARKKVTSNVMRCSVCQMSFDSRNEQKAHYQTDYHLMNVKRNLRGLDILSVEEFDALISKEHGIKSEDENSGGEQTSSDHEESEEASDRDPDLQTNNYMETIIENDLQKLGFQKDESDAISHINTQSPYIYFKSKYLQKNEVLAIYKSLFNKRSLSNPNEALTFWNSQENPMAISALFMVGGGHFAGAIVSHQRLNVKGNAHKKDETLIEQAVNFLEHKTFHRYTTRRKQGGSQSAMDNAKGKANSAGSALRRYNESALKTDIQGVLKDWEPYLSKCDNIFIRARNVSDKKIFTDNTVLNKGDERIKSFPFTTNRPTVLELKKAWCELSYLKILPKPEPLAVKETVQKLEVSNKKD

[1] = target: T2, C-terminal fragment of PreScission-cleaved His10-Vms1(1-182-PP-417)-HA (S. cerevisiae, UniProt Q04311 183-417); assay: SEC
T2 sequence (looked up): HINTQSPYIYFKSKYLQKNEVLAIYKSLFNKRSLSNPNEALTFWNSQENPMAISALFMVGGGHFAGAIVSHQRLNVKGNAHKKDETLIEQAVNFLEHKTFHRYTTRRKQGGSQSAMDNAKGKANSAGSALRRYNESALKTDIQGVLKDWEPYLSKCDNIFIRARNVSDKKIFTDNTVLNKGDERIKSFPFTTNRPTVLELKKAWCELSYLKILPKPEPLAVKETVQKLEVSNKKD

[2] = target: T3, C-terminal fragment of PreScission-cleaved His10-Vms1(1-182-PP-417, C387A, E25C, S228C)-HA (S. cerevisiae, UniProt Q04311 183-417, S228C | C387A); assay: cross-linking
T3 sequence (looked up): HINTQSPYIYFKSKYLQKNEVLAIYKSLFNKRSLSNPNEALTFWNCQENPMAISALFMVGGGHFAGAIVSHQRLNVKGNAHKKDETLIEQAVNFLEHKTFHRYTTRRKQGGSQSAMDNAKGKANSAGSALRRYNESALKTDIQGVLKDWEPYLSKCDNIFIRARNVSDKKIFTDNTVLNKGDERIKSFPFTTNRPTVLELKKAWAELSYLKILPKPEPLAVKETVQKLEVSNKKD

[3] = target: T4, C-terminal fragment of PreScission-cleaved His10-Vms1(1-182-PP-417, C387A, K32C, T224C)-HA (S. cerevisiae, UniProt Q04311 183-417, T224C | C387A); assay: cross-linking
T4 sequence (looked up): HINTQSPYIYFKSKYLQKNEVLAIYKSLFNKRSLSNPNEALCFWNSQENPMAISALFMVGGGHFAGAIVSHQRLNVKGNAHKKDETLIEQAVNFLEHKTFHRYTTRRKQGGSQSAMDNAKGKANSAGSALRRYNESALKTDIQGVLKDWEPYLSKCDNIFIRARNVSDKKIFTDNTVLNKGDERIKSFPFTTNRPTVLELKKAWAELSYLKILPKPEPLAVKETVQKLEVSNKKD

[4] = target: T5, C-terminal fragment of PreScission-cleaved His10-Vms1(1-182-PP-417, C387A, K32C, N218C)-HA (S. cerevisiae, UniProt Q04311 183-417, N218C | C387A); assay: cross-linking
T5 sequence (looked up): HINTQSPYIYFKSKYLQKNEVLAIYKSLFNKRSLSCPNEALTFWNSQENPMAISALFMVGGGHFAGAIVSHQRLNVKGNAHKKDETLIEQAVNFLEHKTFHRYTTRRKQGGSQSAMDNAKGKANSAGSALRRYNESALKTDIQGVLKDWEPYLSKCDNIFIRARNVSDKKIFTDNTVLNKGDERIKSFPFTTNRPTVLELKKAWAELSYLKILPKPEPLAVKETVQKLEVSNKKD

Molecule: CC(C)[C@@H](C)/C=C/[C@@H](C)[C@H]1CC[C@@H]2[C@]1(C)CC[C@H]1[C@]23C=C[C@]2(C[C@@H](O)CC[C@]12C)OO3 [EP, ergosterol peroxide]
- lipid blot on nitrocellulose; liposome floatation assay (Vms1 (Vms1^1-417)): Vms1 displayed comparable binding to nitrocellulose-spotted commercial EP and the purified C28H44O3

B1: N-terminal fragment of PreScission-cleaved His10-Vms1(1-182-PP-417)-HA (domain or fragment, S. cerevisiae, UniProt Q04311 1-182, looked up)
chain: MNSQKASKMTGSLKKNDLYIFDLSEQLLNSLKLMSFDSTLREVEVEKTSDNDRNKESGDLQIARKKVTSNVMRCSVCQMSFDSRNEQKAHYQTDYHLMNVKRNLRGLDILSVEEFDALISKEHGIKSEDENSGGEQTSSDHEESEEASDRDPDLQTNNYMETIIENDLQKLGFQKDESDAIS
- binding result [1]: binds

B2: N-terminal fragment of PreScission-cleaved His10-Vms1(1-182-PP-417, C387A, E25C, S228C)-HA (domain or fragment, S. cerevisiae, UniProt Q04311 1-182, looked up)
chain: MNSQKASKMTGSLKKNDLYIFDLSCQLLNSLKLMSFDSTLREVEVEKTSDNDRNKESGDLQIARKKVTSNVMRCSVCQMSFDSRNEQKAHYQTDYHLMNVKRNLRGLDILSVEEFDALISKEHGIKSEDENSGGEQTSSDHEESEEASDRDPDLQTNNYMETIIENDLQKLGFQKDESDAIS
- binding result [2]: binds

B3: N-terminal fragment of PreScission-cleaved His10-Vms1(1-182-PP-417, C387A, K32C, T224C or N218C)-HA (domain or fragment, S. cerevisiae, UniProt Q04311 1-182, looked up)
chain: MNSQKASKMTGSLKKNDLYIFDLSEQLLNSLCLMSFDSTLREVEVEKTSDNDRNKESGDLQIARKKVTSNVMRCSVCQMSFDSRNEQKAHYQTDYHLMNVKRNLRGLDILSVEEFDALISKEHGIKSEDENSGGEQTSSDHEESEEASDRDPDLQTNNYMETIIENDLQKLGFQKDESDAIS
- binding result [3]: binds
- binding result [4]: binds
